{"source": "the supplement of paper PMC9112550", "about": "“Optimization of the antimicrobial peptide Bac7 by deep mutational scanning” (BMC Biology, 2022);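 note: peptides expressed intracellularly from a pBAD plasmid library in pooled LB shake-flask culture, induced with 0.3% L-arabinose, DNA abundance read by NGS, three biological replicates, DESeq2 with apeglm shrinkage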", "data": [{"tested_on": "Escherichia coli TOP10", "experiment": "shrunken log2 fold change of peptide-encoding DNA abundance (4.5 h post-induction vs induction); higher = less antimicrobial activity (less host growth inhibition)", "conditions": "time post-induction: 4.5 h; library: site-saturation at positions 5, 18, 19, 20", "values": [{"sequence": "RRIRIRPPRLPRPRPRPYEWPRP", "shrunken log2 fold change": -0.00783}, {"sequence": "RRIRHRPPRLPRPRPRPMITPRP", "shrunken log2 fold change": -0.658}, {"sequence": "RRIRCRPPRLPRPRPRPKTSPRP", "shrunken log2 fold change": -0.179}, {"sequence": "RRIRERPPRLPRPRPRPCWEPRP", "shrunken log2 fold change": -0.0225}, {"sequence": "RRIRARPPRLPRPRPRPPEMPRP", "shrunken log2 fold change": 0.515}, {"sequence": "RRIRARPPRLPRPRPRPNPYPRP", "shrunken log2 fold change": -0.115}, {"sequence": "RRIRFRPPRLPRPRPRPFWNPRP", "shrunken log2 fold change": -0.00687}, {"sequence": "RRIRTRPPRLPRPRPRPHWMPRP", "shrunken log2 fold change": -0.243}, {"sequence": "RRIRWRPPRLPRPRPRPNRVPRP", "shrunken log2 fold change": -0.0395}, {"sequence": "RRIRARPPRLPRPRPRPPDKPRP", "shrunken log2 fold change": 0.572}, {"sequence": "RRIRRRPPRLPRPRPRPHMDPRP", "shrunken log2 fold change": -0.265}, {"sequence": "RRIRQRPPRLPRPRPRPHMQPRP", "shrunken log2 fold change": -0.288}, {"sequence": "RRIRWRPPRLPRPRPRPPGDPRP", "shrunken log2 fold change": 0.88}, {"sequence": "RRIRMRPPRLPRPRPRPYGHPRP", "shrunken log2 fold change": -0.0791}, {"sequence": "RRIRPRPPRLPRPRPRPYSIPRP", "shrunken log2 fold change": -0.0708}, {"sequence": "RRIRIRPPRLPRPRPRPQYRPRP", "shrunken log2 fold change": -0.0599}, {"sequence": "RRIRNRPPRLPRPRPRPNSEPRP", "shrunken log2 fold change": -0.258}, {"sequence": "RRIRVRPPRLPRPRPRPSNKPRP", "shrunken log2 fold change": -0.751}, {"sequence": "RRIRDRPPRLPRPRPRPWVNPRP", "shrunken log2 fold change": 0.0215}, {"sequence": "RRIRYRPPRLPRPRPRPNFCPRP", "shrunken log2 fold change": -0.00468}, {"sequence": "RRIRERPPRLPRPRPRPQMNPRP", "shrunken log2 fold change": -0.276}, {"sequence": "RRIRRRPPRLPRPRPRPFQDPRP", "shrunken log2 fold change": -0.15}, {"sequence": "RRIRDRPPRLPRPRPRPEPSPRP", "shrunken log2 fold change": 0.885}, {"sequence": "RRIRARPPRLPRPRPRPDCLPRP", "shrunken log2 fold change": 0.948}, {"sequence": "RRIRFRPPRLPRPRPRPYIHPRP", "shrunken log2 fold change": -0.932}, {"sequence": "RRIRVRPPRLPRPRPRPGDDPRP", "shrunken log2 fold change": 0.364}, {"sequence": "RRIRRRPPRLPRPRPRPPIFPRP", "shrunken log2 fold change": 0.16}, {"sequence": "RRIRGRPPRLPRPRPRPTMDPRP", "shrunken log2 fold change": 0.985}, {"sequence": "RRIRTRPPRLPRPRPRPWNTPRP", "shrunken log2 fold change": -0.0118}, {"sequence": "RRIRIRPPRLPRPRPRPGRRPRP", "shrunken log2 fold change": 0.18}, {"sequence": "RRIRQRPPRLPRPRPRPRPHPRP", "shrunken log2 fold change": 0.483}, {"sequence": "RRIRQRPPRLPRPRPRPEKPPRP", "shrunken log2 fold change": -0.129}, {"sequence": "RRIRRRPPRLPRPRPRPPGDPRP", "shrunken log2 fold change": 1.06}, {"sequence": "RRIRIRPPRLPRPRPRPERFPRP", "shrunken log2 fold change": -0.0158}, {"sequence": "RRIRWRPPRLPRPRPRPKFTPRP", "shrunken log2 fold change": -0.119}, {"sequence": "RRIRERPPRLPRPRPRPAFSPRP", "shrunken log2 fold change": 0.122}, {"sequence": "RRIRTRPPRLPRPRPRPDCVPRP", "shrunken log2 fold change": -0.128}, {"sequence": "RRIRKRPPRLPRPRPRPSFLPRP", "shrunken log2 fold change": 0.104}, {"sequence": "RRIRPRPPRLPRPRPRPRSDPRP", "shrunken log2 fold change": 0.179}, {"sequence": "RRIRDRPPRLPRPRPRPKFRPRP", "shrunken log2 fold change": 0.152}, {"sequence": "RRIRNRPPRLPRPRPRPSETPRP", "shrunken log2 fold change": -0.083}, {"sequence": "RRIRHRPPRLPRPRPRPKTRPRP", "shrunken log2 fold change": -0.0214}, {"sequence": "RRIRVRPPRLPRPRPRPRGEPRP", "shrunken log2 fold change": 0.254}, {"sequence": "RRIRTRPPRLPRPRPRPVTRPRP", "shrunken log2 fold change": 0.229}, {"sequence": "RRIRTRPPRLPRPRPRPQFKPRP", "shrunken log2 fold change": 2.23}, {"sequence": "RRIRIRPPRLPRPRPRPKKPPRP", "shrunken log2 fold change": 0.0487}, {"sequence": "RRIRNRPPRLPRPRPRPISMPRP", "shrunken log2 fold change": -0.0881}, {"sequence": "RRIRDRPPRLPRPRPRPGKIPRP", "shrunken log2 fold change": -0.176}, {"sequence": "RRIRPRPPRLPRPRPRPFGVPRP", "shrunken log2 fold change": -0.112}, {"sequence": "RRIRHRPPRLPRPRPRPSLKPRP", "shrunken log2 fold change": -0.488}, {"sequence": "RRIRERPPRLPRPRPRPPMQPRP", "shrunken log2 fold change": 0.225}, {"sequence": "RRIRTRPPRLPRPRPRPWVWPRP", "shrunken log2 fold change": 0.166}, {"sequence": "RRIRWRPPRLPRPRPRPVEFPRP", "shrunken log2 fold change": -0.177}, {"sequence": "RRIRKRPPRLPRPRPRPHKTPRP", "shrunken log2 fold change": -0.0618}, {"sequence": "RRIRVRPPRLPRPRPRPIGCPRP", "shrunken log2 fold change": -0.0514}, {"sequence": "RRIRFRPPRLPRPRPRPGQYPRP", "shrunken log2 fold change": -0.0815}, {"sequence": "RRIRARPPRLPRPRPRPFIRPRP", "shrunken log2 fold change": -0.27}, {"sequence": "RRIRHRPPRLPRPRPRPRTWPRP", "shrunken log2 fold change": 0.207}, {"sequence": "RRIRLRPPRLPRPRPRPCYFPRP", "shrunken log2 fold change": -0.232}, {"sequence": "RRIRHRPPRLPRPRPRPQIEPRP", "shrunken log2 fold change": -0.24}, {"sequence": "RRIRQRPPRLPRPRPRPRPTPRP", "shrunken log2 fold change": 0.554}, {"sequence": "RRIRNRPPRLPRPRPRPACEPRP", "shrunken log2 fold change": 0.172}, {"sequence": "RRIRERPPRLPRPRPRPDRSPRP", "shrunken log2 fold change": -0.0225}, {"sequence": "RRIRDRPPRLPRPRPRPFRMPRP", "shrunken log2 fold change": -0.125}, {"sequence": "RRIRIRPPRLPRPRPRPKIGPRP", "shrunken log2 fold change": -0.0343}, {"sequence": "RRIRVRPPRLPRPRPRPAAIPRP", "shrunken log2 fold change": -0.0826}, {"sequence": "RRIRMRPPRLPRPRPRPSEMPRP", "shrunken log2 fold change": 0.185}, {"sequence": "RRIRPRPPRLPRPRPRPTIKPRP", "shrunken log2 fold change": -0.313}, {"sequence": "RRIRMRPPRLPRPRPRPNHMPRP", "shrunken log2 fold change": -0.01}, {"sequence": "RRIRTRPPRLPRPRPRPHATPRP", "shrunken log2 fold change": -0.0102}, {"sequence": "RRIRRRPPRLPRPRPRPKEGPRP", "shrunken log2 fold change": -0.000243}, {"sequence": "RRIRDRPPRLPRPRPRPTEFPRP", "shrunken log2 fold change": -0.0306}, {"sequence": "RRIRLRPPRLPRPRPRPNDTPRP", "shrunken log2 fold change": -0.302}, {"sequence": "RRIRTRPPRLPRPRPRPVGNPRP", "shrunken log2 fold change": 0.0924}, {"sequence": "RRIRWRPPRLPRPRPRPKDNPRP", "shrunken log2 fold change": -0.00672}, {"sequence": "RRIRIRPPRLPRPRPRPRPPPRP", "shrunken log2 fold change": 0.635}, {"sequence": "RRIRWRPPRLPRPRPRPQYFPRP", "shrunken log2 fold change": -0.181}, {"sequence": "RRIRYRPPRLPRPRPRPRSIPRP", "shrunken log2 fold change": -0.276}, {"sequence": "RRIRHRPPRLPRPRPRPQIMPRP", "shrunken log2 fold change": -0.682}, {"sequence": "RRIRSRPPRLPRPRPRPNFHPRP", "shrunken log2 fold change": -0.171}, {"sequence": "RRIRIRPPRLPRPRPRPHEPPRP", "shrunken log2 fold change": -0.129}, {"sequence": "RRIRHRPPRLPRPRPRPYISPRP", "shrunken log2 fold change": -0.0543}, {"sequence": "RRIRMRPPRLPRPRPRPPYPPRP", "shrunken log2 fold change": 0.134}, {"sequence": "RRIRTRPPRLPRPRPRPRWDPRP", "shrunken log2 fold change": 0.0818}, {"sequence": "RRIRNRPPRLPRPRPRPLCAPRP", "shrunken log2 fold change": 0.194}, {"sequence": "RRIRYRPPRLPRPRPRPGMVPRP", "shrunken log2 fold change": 2}, {"sequence": "RRIRVRPPRLPRPRPRPVFQPRP", "shrunken log2 fold change": -0.092}, {"sequence": "RRIRRRPPRLPRPRPRPCMQPRP", "shrunken log2 fold change": 0.23}, {"sequence": "RRIRGRPPRLPRPRPRPVGCPRP", "shrunken log2 fold change": 0.74}, {"sequence": "RRIRYRPPRLPRPRPRPTPTPRP", "shrunken log2 fold change": 0.451}, {"sequence": "RRIRDRPPRLPRPRPRPSTDPRP", "shrunken log2 fold change": 0.0145}, {"sequence": "RRIRWRPPRLPRPRPRPGALPRP", "shrunken log2 fold change": 0.406}, {"sequence": "RRIRTRPPRLPRPRPRPWADPRP", "shrunken log2 fold change": 0.015}, {"sequence": "RRIRRRPPRLPRPRPRPWVNPRP", "shrunken log2 fold change": -0.0334}, {"sequence": "RRIRKRPPRLPRPRPRPNCHPRP", "shrunken log2 fold change": -0.131}, {"sequence": "RRIRHRPPRLPRPRPRPHMKPRP", "shrunken log2 fold change": 0.181}, {"sequence": "RRIRHRPPRLPRPRPRPGPSPRP", "shrunken log2 fold change": 0.188}, {"sequence": "RRIRTRPPRLPRPRPRPFAPPRP", "shrunken log2 fold change": 0.163}, {"sequence": "RRIRWRPPRLPRPRPRPYFAPRP", "shrunken log2 fold change": -0.216}, {"sequence": "RRIRKRPPRLPRPRPRPKSEPRP", "shrunken log2 fold change": 0.0409}, {"sequence": "RRIRYRPPRLPRPRPRPVQVPRP", "shrunken log2 fold change": 0.0039}, {"sequence": "RRIRNRPPRLPRPRPRPPDVPRP", "shrunken log2 fold change": -0.14}, {"sequence": "RRIRGRPPRLPRPRPRPAKWPRP", "shrunken log2 fold change": 0.747}, {"sequence": "RRIRMRPPRLPRPRPRPMHIPRP", "shrunken log2 fold change": 0.0159}, {"sequence": "RRIRDRPPRLPRPRPRPATDPRP", "shrunken log2 fold change": 0.0254}, {"sequence": "RRIRRRPPRLPRPRPRPNRGPRP", "shrunken log2 fold change": -0.0468}, {"sequence": "RRIRIRPPRLPRPRPRPDVVPRP", "shrunken log2 fold change": -0.0365}, {"sequence": "RRIRKRPPRLPRPRPRPDTCPRP", "shrunken log2 fold change": 0.0482}, {"sequence": "RRIRRRPPRLPRPRPRPCFDPRP", "shrunken log2 fold change": 0.1}, {"sequence": "RRIRGRPPRLPRPRPRPVKIPRP", "shrunken log2 fold change": 0.16}, {"sequence": "RRIRTRPPRLPRPRPRPVAQPRP", "shrunken log2 fold change": 0.26}, {"sequence": "RRIRHRPPRLPRPRPRPPTKPRP", "shrunken log2 fold change": 0.161}, {"sequence": "RRIRIRPPRLPRPRPRPGWSPRP", "shrunken log2 fold change": 0.312}, {"sequence": "RRIRSRPPRLPRPRPRPLLRPRP", "shrunken log2 fold change": -0.107}, {"sequence": "RRIRLRPPRLPRPRPRPDLSPRP", "shrunken log2 fold change": -0.112}, {"sequence": "RRIRSRPPRLPRPRPRPDDGPRP", "shrunken log2 fold change": 0.00408}, {"sequence": "RRIRARPPRLPRPRPRPEACPRP", "shrunken log2 fold change": 1.24}, {"sequence": "RRIRTRPPRLPRPRPRPIILPRP", "shrunken log2 fold change": -0.25}, {"sequence": "RRIRIRPPRLPRPRPRPDCDPRP", "shrunken log2 fold change": -0.242}, {"sequence": "RRIRRRPPRLPRPRPRPGLGPRP", "shrunken log2 fold change": 0.55}, {"sequence": "RRIRTRPPRLPRPRPRPQGVPRP", "shrunken log2 fold change": -0.0062}, {"sequence": "RRIRERPPRLPRPRPRPANIPRP", "shrunken log2 fold change": -0.465}, {"sequence": "RRIRQRPPRLPRPRPRPHTMPRP", "shrunken log2 fold change": -0.9}, {"sequence": "RRIRNRPPRLPRPRPRPSTMPRP", "shrunken log2 fold change": -1.15}, {"sequence": "RRIRCRPPRLPRPRPRPVKWPRP", "shrunken log2 fold change": -0.24}]}]}
